The target of the test is CD1a (Homo sapiens (Human), UniProt P06126). The experiment in a line: titration experiments on cortical, CD1a-expressing T-ALL cell lines (apparent Kd, average).

Consider one molecule from patent publication US20250011434A1, “ASYMMETRIC BISPECIFIC ANTIBODY (UMG2/CD1A-CD3E) FOR THE IMMUNOLOGICAL TREATMENT OF CORTICAL-DERIVED CD1A-EXPRESSING T-CELL ACUTE LYMPHOBLASTIC LEUKEMIAS (T-ALL)” (UNIVERSITA' DEGLI STUDI MAGNA GRAECIA DI CATANZARO, published 2025).

B1: asymmetric bispecific antibody UMG2/CD1a-CD3ε BTCE (bispecific antibody)
heavy 1: not shown
heavy 2: not shown
light: DIQMTQTTSSLSASLGDRVTISCSASQDISNYLDWYQQKPDGTVRLLIYYTSSLHSGVPSRFSGSGSGTAFSLTIINLEPEDVATYYCHQYSNLPYTFGGGTKLEIKRTVAAPSVFIFPPSDEQLKSGTASVVCLLNNFYPREAKVQWKVDNALQSGNSQESVTEQDSKDSTYSLSSTLTLSKADYEKHKVYACEVTHQGLSSPVTKSFNRGEC
On to B1, for which the Kd amounted to 0.014 µg/mL.
